Test results published in PMC9436372.

T1: ATF3 (recombinant human) (Homo sapiens, UniProt P18847 1-181)
T1 sequence: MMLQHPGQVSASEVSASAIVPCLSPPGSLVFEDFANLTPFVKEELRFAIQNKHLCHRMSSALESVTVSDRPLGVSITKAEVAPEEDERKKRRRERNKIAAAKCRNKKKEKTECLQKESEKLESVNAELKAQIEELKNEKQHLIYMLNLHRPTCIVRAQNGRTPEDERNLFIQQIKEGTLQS

B1: HyATF3-1 probe (dsDNA)
DNA 1: GAAAAAAACGTCAGAAAACAAGTGACGTATTATA
DNA 2: TATAATACGTCACTTGTTTTCTGACGTTTTTTTC
B2: HyATF3-2 probe (dsDNA)
DNA 1: TTATGTTTACTGACGTTTCCCTGCCTTCTA
DNA 2: TAGAAGGCAGGGAAACGTCAGTAAACATAA

Target: T1, ATF3 (recombinant human)
Experiment: EMSA

Binder	binding result
B1	binds
B2	binds
